The target in this data set is T1, APLF acidic domain (APLFAD) WT (Homo sapiens, UniProt Q8IW19 450-511).
T1 sequence: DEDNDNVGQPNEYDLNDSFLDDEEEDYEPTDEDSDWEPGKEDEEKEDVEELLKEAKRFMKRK
As to the kind of experiment: EMSA (native PAGE, cross-linked); APLFAD alone, no histones; Native PAGE EMSA with cross-linking; EMSA and NAQ buffer, salt and temperature not in material (general assay buffer 25 mM NaPi pH 7.0, 300 mM NaCl). Particulars: protein: recombinant; tags: TAMRA-labelled; His-GST or His-SUMO fusion for expression (TEV cleaved; SUMO may be retained); chain copies: 2; blunt. A general note: Mobility shift assays separate free from complexed probe on a gel.

B1: 49-bp DNA, centre of 601 (dsDNA)
DNA 1: GCACCGCTTAAACGCACGTACGCGCTGTCCCCCGCGTTTTAACCGCCAA
DNA 2: TTGGCGGTTAAAACGCGGGGGACAGCGCGTACGTGCGTTTAAGCGGTGC
With B1, the binding result was “no binding”.

Source of the values: PMC9328677.
